# Results published in publication doi:10.1101/2022.05.30.493996.
# Molecular target: Gp57 (purified) (phage SECΦ27)
# Assay: ITC
substance,measurement,value
"CapRel^SJ46 (purified, full-length) (enzyme)",Kd,190 nM
